One data set has as its target T1, TLR2 (Mus musculus, UniProt Q9QUN7).
T1 construct: host or cells: HEK293 (HEK-Blue mTLR2)
Nature of the data set: TLR-2 stimulation, SEAP activity in HEK-Blue mTLR2 cells. It is filed as cell-based. The settings on record: HEK-Blue mTLR2 cells, 16 h. Here is the method: TLR-2 stimulation. HEK293 cells stably co-transfected with mTLR2 and SEAP (HEK-Blue mTLR2 cells, InvivoGen) were cultivated in Dulbecco's Modified Eagle's Medium supplemented with 4.5 g/I glucose, 10% (v/v) fetal bovine serum, 100 U/ml penicillin, […], […], 2 mM L-glutamine. At 50-80% confluency, cells were seeded in Hek-Blue detection medium (InvivoGen) at a density of 50,000 cells/well in a 96-well plate containing NRs and controls. After 16 h incubation at 37° C. in 5% CO2, absorbance was monitored at 630 nm.

The nature of data set [1]: Atomic force microscopy of the assemblies. It counts as physicochemical.
The next data set in a line: Zeta potential. It is filed as physicochemical.
Data set [2] can be described thus: Negative-stain transmission electron microscopy of the assemblies. It counts as physicochemical.
The test system of data set [3] is macrophage cells (J774A.1).
In the next data set the test system is INS-1E cells. It is filed as cell-based, Rat. The settings on record: 24 h, 50×10^−6 m.
Data set [4] is described as follows: Thermal denaturation monitored by CD spectroscopy. It counts as physicochemical. Conditions: CD at 222, 212 and 205 nm.
In data set [5] the test system is dendritic-like cells (DC2.4).

Values joined by “and” are separate entries in the source; they are usually repeats but may differ in a detail not shown here. Equal entries are not always repeated. “Also recorded” adds a separate entry of the source.

T1 sequence (Q9QUN7 25-784): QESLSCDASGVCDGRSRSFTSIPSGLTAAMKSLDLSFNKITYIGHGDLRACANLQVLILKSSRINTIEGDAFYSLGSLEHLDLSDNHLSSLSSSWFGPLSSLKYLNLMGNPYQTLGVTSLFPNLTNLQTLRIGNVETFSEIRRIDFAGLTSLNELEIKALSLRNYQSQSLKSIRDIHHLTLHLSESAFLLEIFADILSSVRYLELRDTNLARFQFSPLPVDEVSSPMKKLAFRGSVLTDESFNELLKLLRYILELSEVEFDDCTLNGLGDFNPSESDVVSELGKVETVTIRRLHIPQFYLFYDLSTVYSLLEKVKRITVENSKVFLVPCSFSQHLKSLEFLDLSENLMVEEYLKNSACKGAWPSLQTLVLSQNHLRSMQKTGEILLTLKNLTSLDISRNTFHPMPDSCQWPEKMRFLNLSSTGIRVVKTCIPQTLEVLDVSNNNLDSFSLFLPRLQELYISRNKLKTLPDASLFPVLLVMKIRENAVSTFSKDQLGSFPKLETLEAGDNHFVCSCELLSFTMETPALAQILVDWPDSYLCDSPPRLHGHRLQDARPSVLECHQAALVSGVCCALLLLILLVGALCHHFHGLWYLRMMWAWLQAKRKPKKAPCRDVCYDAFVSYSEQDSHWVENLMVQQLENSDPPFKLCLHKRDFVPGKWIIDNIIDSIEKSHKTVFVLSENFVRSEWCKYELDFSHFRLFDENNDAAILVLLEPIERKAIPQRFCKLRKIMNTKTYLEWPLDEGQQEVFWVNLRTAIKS

Consider Pam2CSK4, for which the SEAP activity result on TLR2 is given as “SEAP activity was measured”.

With Ac-KGSGSSNNFGAILSS-NH2 [Ac-KI10], the Heigth in data set [1] is 7.0 nm and 7.0 ± 0.7 nm. This substance gave a Surface charge in the data set “Zeta potential” of 49 ± 5 mV. Moreover, the Morphology entry in data set [2] (pH 7.4) is “rope-like fibrils; also recorded: thick rope-like”.

With HGSGSSNNFGAILSS [HI10], the “Morphology of variants of the KI10 sequence” value in [1] is “do not adopt a short-like rod confirmation”.

As to “islet amyloid polypeptide (KCNTATCATQRLANFLVHSSNNFGAILSSTNVGSNTY; Islet amyloid polypeptide; UniProt P10997 34-70, looked up) [IAPP, amyloidogenic peptide used as classical amyloid and positive control of cytotoxicity]”, the Cytotoxicity entry in data set [3] and in data set [5] was “high decrease of viability” in each case. The “calcein-AM/ethidium homodimer-1 staining” value was “increase of ethidium homodimer-1 and a decrease of calcein-AM staining” in the data set on INS-1E cells; “increase of ethidium homodimer-1 and a decrease of calcein-AM staining” in the data set with HEK293T cells. Also, in [4], the Thermal denaturation result is recorded as “no melt observed”. For the same substance, the Morphology result in data set [2] (Tris 50×10^−3 M pH 7.4, rotary agitation 48 h, 150×10^−6 M (KKI10 500×10^−6 M)) was “polymorphic twisted ribbons and fibrils”.

As to RGSGSSNNFGAILSS [RI10], in data set [1], the “Morphology of variants of the KI10 sequence” value was “do not adopt a short-like rod confirmation”.
